{"source": "IntAct's records for PubMed 27178753", "parents": {"B1": {"name": "Focal adhesion kinase 1 (Homo sapiens), Q05397 (parent)", "chain": "MAAAYLDPNLNHTPNSSTKTHLGTGMERSPGAMERVLKVFHYFESNSEPTTWASIIRHGDATDVRGIIQKIVDSHKVKHVACYGFRLSHLRSEEVHWLHVDMGVSSVREKYELAHPPEEWKYELRIRYLPKGFLNQFTEDKPTLNFFYQQVKSDYMLEIADQVDQEIALKLGCLEIRRSYWEMRGNALEKKSNYEVLEKDVGLKRFFPKSLLDSVKAKTLRKLIQQTFRQFANLNREESILKFFEILSPVYRFDKECFKCALGSSWIISVELAIGPEEGISYLTDKGCNPTHLADFTQVQTIQYSNSEDKDRKGMLQLKIAGAPEPLTVTAPSLTIAENMADLIDGYCRLVNGTSQSFIIRPQKEGERALPSIPKLANSEKQGMRTHAVSVSETDDYAEIIDEEDTYTMPSTRDYEIQRERIELGRCIGEGQFGDVHQGIYMSPENPALAVAIKTCKNCTSDSVREKFLQEALTMRQFDHPHIVKLIGVITENPVWIIMELCTLGELRSFLQVRKYSLDLASLILYAYQLSTALAYLESKRFVHRDIAARNVLVSSNDCVKLGDFGLSRYMEDSTYYKASKGKLPIKWMAPESINFRRFTSASDVWMFGVCMWEILMHGVKPFQGVKNNDVIGRIENGERLPMPPNCPPTLYSLMTKCWAYDPSRRPRFTELKAQLSTILEEEKAQQEERMRMESRRQATVSWDSGGSDEAPPKPSRPGYPSPRSSEGFYPSPQHMVQTNHYQVSGYPGSHGITAMAGSIYPGQASLLDQTDSWNHRPQEIAMWQPNVEDSTVLDLRGIGQVLPTHLMEERLIRQQQEMEEDQRWLEKEERFLKPDVRLSRGSIDREDGSLQGPIGNQHIYQPVGKPDPAAPPKKPPRPGAPGHLGSLASLSSPADSYNEGVKLQPQEISPPPTANLDRSNDKVYENVTGLVKAVIEMSSKIQPAPPEEYVPMVKEVGLALRTLLATVDETIPLLPASTHREIEMAQKLLNSDLGELINKMKLAQQYVMTSLQQEYKKQMLTAAHALAVDAKNLLDVIDQARLKMLGQTRPH"}}}
{"variants_of": "B1", "settings": "with itb4_human ITGB4, P16144"}
{"variant": "E380A;K381A;Q382A", "effect of a mutation on the interaction": "disrupting interaction"}
{"variants_of": "B1", "settings": "with itb4_human ITGB4, P16144", "remark": "another data set of the same source"}
{"variant": "R385A;T386A", "effect of a mutation on the interaction": "decreasing interaction"}
